For the assay, the target named is SARS-CoV-2 prefusion-stabilized trimeric spike ectodomain (S2Pecto) (SARS-CoV-2;, UniProt P0DTC2 14-1213; P10104 458-484). The assay can be described thus: ELISA. On the technique in general: In an ELISA, binding on a coated surface is turned into a signal by an enzyme label.

Data on one molecule can be found in patent US20210300999A1 (published 2021).

One may read the IC50 as the concentration at which inhibition is half-maximal. High values mean lower potency, low ones higher potency.

B1: COV2-2196 (antibody, V domains shown)
VH: QMQLVQSGPEVKKPGTSVKVSCKASGFTFMSSAVQWVRQARGQRLEWIGWIVIGSGNTNYAQKFQERVTITRDMSTSTAYMELSSLRSEDTAVYYCAAPYCSSISCNDGFDIWGQGTMVTVSS
VL: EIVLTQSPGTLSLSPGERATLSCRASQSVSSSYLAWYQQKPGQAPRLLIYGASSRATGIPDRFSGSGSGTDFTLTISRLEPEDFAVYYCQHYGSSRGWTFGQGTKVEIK
In the case of B1, the IC50 came to 0.058 µg/mL.
